The values below are quoted from earlier work in PMC9585055.

For this data set, the target named is cellular prion protein PrPC (Homo sapiens) (UniProt P04156).

With “tissue-type plasminogen activator (from UniProt P00750)”, the Kd was 2.5 nM.
